Laboratory results as given in PMC9239237, “Salmonella Facilitates Iron Acquisition through UMPylation of Ferric Uptake Regulator” (mBio, 2022).

Tests used:
[1] = biological target: T1, Fur (native, not UMPylated) (Escherichia coli K-12 substrain MG1655, UniProt P0A9A9 1-148); test: EMSA; shift at Fur:DNA molar ratio above 1; no metal addition stated; DNA annealed in 10 mM Tris-HCl pH 7.5, 150 mM NaCl; binding buffer not stated; 20 nM DNA, 37 C 10 min (Methods) vs 10 nmol DNA, 30 C 10 min (Fig. 4 legend); 6%; conditions: protein: recombinant; tags: His tag removed with PPase (pGL01); chain copies: 2; blunt
T1 sequence: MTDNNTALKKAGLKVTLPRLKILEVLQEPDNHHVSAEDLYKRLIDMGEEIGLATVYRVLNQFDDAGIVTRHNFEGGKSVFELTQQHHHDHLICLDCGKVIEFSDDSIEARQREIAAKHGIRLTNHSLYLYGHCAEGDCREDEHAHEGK

[2] = biological target: the molecule itself; test: SEC; 100 ug protein on a Superdex 200 column; a 53-kDa protein and a 22-kDa protein run under the same conditions as controls

B1: Fur box DNA (dsDNA)
DNA 1: GATAATGATAATGATAATGATAATGATAATGA
DNA 2: TCATTATCATTATCATTATCATTATCATTATC
Question: Does B1 bind [1]?
Answer: binds

B2: E. coli Fur (ferric uptake regulator) purified from ydiU knockout E. coli, without UMPylation (natural protein, UniProt P0A9A9 1-148, looked up)
chain: MTDNNTALKKAGLKVTLPRLKILEVLQEPDNHHVSAEDLYKRLIDMGEEIGLATVYRVLNQFDDAGIVTRHNFEGGKSVFELTQQHHHDHLICLDCGKVIEFSDDSIEARQREIAAKHGIRLTNHSLYLYGHCAEGDCREDEHAHEGK
notes: Ferric uptake regulator Fur, E. coli K-12 substrain MG1655; fur gene amplified from genomic DNA and cloned into pGL01 (modified pET15b with a PPase cleavage site); also called Fur^dYdiU; native Fur; source: E. coli BL21(DE3) ydiU knockout strain, purified (Ni-NTA, His tag removed by PPase, Superdex 200)
Question: With B2 as the binder, how does the “stoichiometry N” value [2] read?
Answer: 2
